According to US11814447B2, “Peptide ligands for binding to EphA2” (BICYCLERD LIMITED, priority 2018, dated 2023):
Where two headings read alike, the source gives them in different places. Values belong to the molecule of their own block, whether it stands above or below them. Starred links: 1 amine or outer side, 2 acyl side, 3 side chain; linkers in the order of their positions; H or OH if unused. Positions of bridges follow the written chain, without caps; N, C: chain ends. Non-standard residues stand in square brackets, D forms with d. Primed or numbered codes have the meaning given here. No end group written: not given here. TBMB′ = 1,3,5-tris(bromomethyl)benzene, 1,3,5-tris(methylene)benzene core, three thioethers to Cys; TATA = O=C(CC[*:1])N1CN(C(=O)CC[*:2])CN(C(=O)CC[*:3])C1; Fl″ = fluorescein label (5(6)-carboxyfluorescein; 1Nal = N[C@@H](Cc1cccc2ccccc12)C(=O)O; TBMB = c1c(C[*:1])cc(C[*:3])cc1C[*:2]; hArg = N=C(N)NCCCC[C@H](N)C(=O)O; Tle = CC(C)(C)[C@H](N)C(=O)O; Dap = NC[C@H](N)C(=O)O; AF488 = AlexaFluor488; Aib = CC(C)(N)C(=O)O; βAla = NCCC(=O)O; Sar = CNCC(=O)O

Assays:
[1] = target: T1, Human EphA2 (Homo sapiens, UniProt P29317); assay: Fluorescence polarisation competition binding assay
T1 construct: EphA2 (Ecto); polyHis (C)
Protocol: 1. Fluorescence Polarisation Measurements
(b) Competition Binding Assay
Peptides without a fluorescent tag were tested in competition with a peptide with a fluorescent tag and a known Kd (Table 2). Peptides were diluted to an appropriate concentration in assay buffer as described in the direct binding assay with a maximum of 5% DMSO, then serially diluted 1 in 2. […] Measurements were conducted as for the direct binding assay, however the gain was determined prior to the first measurement. Data analysis was in Systat Sigmaplot version 12.0 where the mP values were fit to a user defined cubic equation to generate a Ki value: f=y min+(y max−y min)/Lig*((Lig*((2*((Klig+Kcomp+Lig+Comp−Prot*c)^2−3*(Kcomp*(Lig−Prot*c)+Klig*(Comp−Prot*c)+Klig*Kcomp))^0.5*COS(ARCCOS((−2*(Klig+Kcomp+Lig+Comp−Prot*c)^3+9*(Klig+Kcomp+Lig+Comp−Prot*c)*(Kcomp*(Lig−Prot*c)+Klig*(Comp−Prot*c)+Klig*Kcomp)−27*(−1*Klig*Kcomp*Prot*c))/(2*(4(Klig+Kcomp+Lig+Comp−Prot*c)^2−3*(Kcomp*(Lig−Prot*c)+Klig*(Comp−Prot*c)+Klig*Kcomp))^3)^0.5)))/3))−(Klig+Kcomp+Lig+Comp−Prot*c)))/((3*Klig)+42*((Klig+Kcomp+Lig+Comp−Prot*c)^2−3*(Kcomp*(Lig−Prot*c)+Klig*(Comp−Prot*c)+Klig*Kcomp))^0.5*COS(ARCCOS((−2*(Klig+Kcomp+Lig+Comp−Prot*c)^3+9*(Klig+Kcomp+Lig+Comp−Prot*c)*(Kcomp*(Lig−Prot*c)+Klig*(Comp−Prot*c)+Klig*Kcomp)−27*(−1*Klig*Kcomp*Prot*c))/(2*(4(Klig+Kcomp+Lig+Comp−Prot*c)^2−3*(Kcomp*(Lig−Prot*c)+Klig*(Comp−Prot*c)+Klig*Kcomp))^3)^0.5)))/3))−(Klig+Kcomp+Lig+Comp−Prot*c)))).
“Lig”, “KLig” and “Prot” were all defined values relating to: fluorescent peptide concentration, the Kd of the fluorescent peptide and EphA2 concentration respectively.

[2] = target: T2, Human EphA2 (Ecto) (Human, UniProt P29317 24-537); assay: FP competition; tracer Reference Compound A
T2 construct: extracellular domain; in-house)
Protocol: (§1) Peptides without a fluorescent tag were tested in competition with a peptide with a fluorescent tag and a known Kd (Table 2). Peptides were diluted to an appropriate concentration in assay buffer as described in the direct binding assay with a maximum of 5% DMSO, then serially diluted 1 in 2. […] Measurements were conducted as for the direct binding assay, however the gain was determined prior to the first measurement. Data analysis was in Systat Sigmaplot version 12.0 where the mP values were fit to a user defined cubic equation to generate a Ki value: […]

[3] = target: T2, Human EphA2 (Ecto); assay: FP competition; tracer Reference Compound B
Protocol: as §1

[4] = target: T3, Human EphA2 (Ecto), C-terminal polyHis (Human, UniProt P29317 24-537); assay: fluorescence polarisation competition; competitor fluorescent Compound 66
T3 construct: extracellular domain; also called EPH receptor A2; ephrin type-A receptor 2
Protocol: as §1

[5] = target: T3, Human EphA2 (Ecto), C-terminal polyHis; assay: fluorescence polarisation competition; competitor fluorescent Compound 12
Protocol: as §1

[6] = target: Mouse EphA2 (Ecto) (Mouse) (UniProt Q03145); assay: FP competition; tracer Reference Compound C
[7] = target: Human EphA2 (Ecto) (Human) (UniProt P29317); assay: FP competition; tracer Reference Compound C
[8] = target: T4, Mouse EphA2 (Ecto) (Mouse, UniProt Q03145 26-538); assay: FP competition; tracer Reference Compound C
T4 construct: extracellular domain; C-terminal polyHis; not shown: Fc fusion or C-terminal polyHis
Outline: (§2)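 Unlabelled peptides competed against a fluorescently tagged peptide of known Kd. Peptides were diluted in direct-binding assay buffer (≤5% DMSO) and serially diluted 1 in 2. Read as in the direct binding assay, with gain set before the first read; mP values fit to a cubic equation to give Ki.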

[9] = target: T2, Human EphA2 (Ecto); assay: FP competition; tracer Reference Compound C
Outline: as §2

[10] = target: Human EphA2 (Ecto) (Human) (UniProt P29317); assay: FP direct binding
[11] = target: T3, Human EphA2 (Ecto), C-terminal polyHis; assay: fluorescence polarisation, direct binding
Protocol: Biological Data 1. […] The gain used for analysis was determined for each tracer at the end of the 60 minutes where there was no protein in the well. Data was analysed using Systat Sigmaplot version 12.0. mP values were fit to a user defined quadratic equation to generate a Kd value: f=y min+(y max−y min)/Lig*((x+Lig+Kd)/2−sqrt((((x+Lig+Kd)/2)^2)−(Lig*x))). "Lig" was a defined value of the concentration of tracer used.

[12] = target: T3, Human EphA2 (Ecto), C-terminal polyHis; assay: fluorescence polarisation competition; competitor fluorescent Compound 1
Protocol: as §1

[13] = target: EphA2 (species not stated in Examples 1-6 and Reference Examples 1-2) (Homo sapiens (Human), UniProt P29317 24-537); assay: fluorescence polarisation competition; fluorescent peptide not named
[14] = target: Mouse EphA2 (Ecto) (Mouse) (UniProt Q03145); assay: FP competition, tracer Compound 18
[15] = target: Human EphA2 (Ecto) (Human) (UniProt P29317); assay: FP competition, tracer Compound 18
[16] = target: T5, Mouse EphA2 (Ecto) (Mouse, UniProt Q03145 26-538); assay: FP competition, tracer Compound 18
T5 construct: extracellular domain
Outline: as §2

[17] = target: T6, Human EphA2 (Ecto) (Human, UniProt P29317 24-537); assay: FP competition, tracer Compound 18
T6 construct: extracellular domain
Outline: as §2

[18] = target: EphA2 (species not stated in Examples 1-6 and Reference Examples 1-2) (Homo sapiens (Human)) (UniProt P29317); assay: fluorescence polarisation competition; fluorescent peptide not named
[19] = read-out: Ki, nM ± 95% CI Human EphA2 Fluorescent peptide Compound 18, Table 9, Ala scan peptides
[20] = read-out: Ki, nM ± 95% CI, Human EphA2, competition binding assay, fluorescent peptide Compound 18, TBMB scaffold reference peptides

T1 sequence (P29317 24-537 limits assumed): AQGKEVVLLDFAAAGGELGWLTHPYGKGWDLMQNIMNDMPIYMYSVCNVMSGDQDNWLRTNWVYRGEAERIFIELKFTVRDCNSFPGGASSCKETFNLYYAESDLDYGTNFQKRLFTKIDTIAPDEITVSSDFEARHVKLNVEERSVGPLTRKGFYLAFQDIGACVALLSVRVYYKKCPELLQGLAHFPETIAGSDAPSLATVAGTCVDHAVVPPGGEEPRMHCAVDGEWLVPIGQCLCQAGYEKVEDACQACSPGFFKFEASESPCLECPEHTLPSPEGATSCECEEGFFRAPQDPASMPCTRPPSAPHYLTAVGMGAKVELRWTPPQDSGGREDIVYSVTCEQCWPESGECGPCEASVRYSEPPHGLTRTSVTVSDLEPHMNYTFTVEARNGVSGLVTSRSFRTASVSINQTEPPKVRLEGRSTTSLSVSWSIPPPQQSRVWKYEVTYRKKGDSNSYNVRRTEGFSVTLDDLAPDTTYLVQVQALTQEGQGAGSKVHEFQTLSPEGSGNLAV
T3 sequence (P29317 24-537): as the sequence (P29317 24-537 limits assumed) above
Sequence of Human EphA2 (Ecto) (Human) (P29317 24-537): as the sequence (P29317 24-537 limits assumed) above
Sequence of Mouse EphA2 (Ecto) (Mouse) (Q03145 26-538): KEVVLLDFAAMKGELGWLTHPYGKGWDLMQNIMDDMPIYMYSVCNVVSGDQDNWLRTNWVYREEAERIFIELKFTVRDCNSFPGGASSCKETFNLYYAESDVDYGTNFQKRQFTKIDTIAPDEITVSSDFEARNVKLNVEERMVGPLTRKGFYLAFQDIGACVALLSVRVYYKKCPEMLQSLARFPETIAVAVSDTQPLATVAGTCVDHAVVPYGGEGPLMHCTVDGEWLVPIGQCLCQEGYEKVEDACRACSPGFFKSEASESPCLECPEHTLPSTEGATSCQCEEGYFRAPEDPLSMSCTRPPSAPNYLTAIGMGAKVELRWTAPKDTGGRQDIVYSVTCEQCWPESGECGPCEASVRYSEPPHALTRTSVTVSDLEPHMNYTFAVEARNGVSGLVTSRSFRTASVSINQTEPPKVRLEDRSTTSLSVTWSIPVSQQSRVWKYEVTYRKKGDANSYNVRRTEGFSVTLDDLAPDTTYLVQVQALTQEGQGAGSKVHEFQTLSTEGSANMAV
Sequence of EphA2 (species not stated in Examples 1-6 and Reference Examples 1-2) (Homo sapiens (Human)) (P29317 24-537 limits assumed, form in doubt): as the sequence (P29317 24-537 limits assumed) above
Sequence of EphA2 (species not stated in Examples 1-6 and Reference Examples 1-2) (P29317 24-537 limits assumed, form in doubt): as the sequence (P29317 24-537 limits assumed) above

Molecule: ADVHCPWGPFWC[dA]VNRPGCA (cysteine pairing not given here) [Compound 154]
Ki [1, 19]: 101 nM | Ki [1, 20]: 101 nM

Molecule: ADVHCPWGPFWCPV[dA]RPGCA (cysteine pairing not given here) [Compound 155]
Ki [1, 19]: 2 nM | Ki [1, 20]: 2 nM

B1: Bicycle Compound Number 30 (TATA scaffold), ACQPSNHCAFMNYCA (peptide)
peptide: ACQPSNHCAFMNYCA
modifications: linker 2-8-14 via TATA
Ki [2]: 137 nM | Ki [3]: 187 nM

B2: Bicycle Compound Number 45 (TBMB scaffold) (peptide)
peptide: ACPWGPAWCPVNRPGCAGAAA
modifications: linker 2-9-16 via TBMB (inferred)
notes: also called Compound 45
Ki [4]: 117 nM | Ki [5]: 99.2 nM

B3: Bicycle Compound Number 90 (TATA scaffold), (β-Ala)-Sar10-…(HArg)GQ (peptide)
peptide: [βAla][Sar][Sar][Sar][Sar][Sar][Sar][Sar][Sar][Sar][Sar]ACPLVNPLCLHPGWSC[hArg]GQ
modifications: linker 13-20-27 via TATA
Ki [6]: 47 nM | Ki [7]: 5.41 nM

B7: Bicycle Compound Number 63 (TBMB scaffold) (peptide)
peptide: ACVPQGIWCALQFEPCA
modifications: linker 2-9-16 via TBMB (inferred)
notes: also called Compound 63
Ki [4]: 82.5 nM | Ki [12]: 144 nM | Ki [5]: 92.2 nM

B10: 55-03-05-N233 (peptide)
peptide: [βAla][Sar][Sar][Sar][Sar][Sar][Sar][Sar][Sar][Sar][Sar]H[dD]VPCPWGPFWCPVNRPGC
modifications: linker 16-23-30 via TBMB
notes: bicyclic peptide on trimethylene benzene scaffold
Ki [13]: 4.12 nM

B13: Bicycle Compound 158 (peptide)
peptide: Ac-[Sar][Sar]A[dD]VTCPWGPFWCPVNRPGC
modifications: linker 7-14-21 via TBMB′
Ki [16]: 2.2 nM | Ki [17]: 2.05 nM

B15: Bicycle Compound Number 87 (BCY6026) (TATA scaffold), ACPLVNPLCLHPGWSCRGQ (peptide)
peptide: ACPLVNPLCLHPGWSCRGQ
modifications: linker 2-9-16 via TATA
Ki [8]: 18.6 nM | Ki [9]: 2.57 nM

B16: Bicycle Compound Number 31 (TATA scaffold), ACSPTPACAVQNLCA (peptide)
peptide: ACSPTPACAVQNLCA
modifications: linker 2-8-14 via TATA
Ki [9]: 223 nM | Ki [3]: 177 nM

B17: Bicycle Compound Number 91 (BCY6042) (TATA scaffold), Ac-CPLVNPLCLHPGWSCRGQ-Sar6-(D-K) (peptide)
peptide: CPLVNPLCLHPGWSCRGQXXXXXXK
modifications: N-terminal acetyl; X at 19-24 = Sar; K25 = D-Lys; 3 Cys thioether-linked to TATA scaffold
Ki [8]: 49.9 nM | Ki [9]: 5.98 nM

B18: Bicycle Compound Number 32 (TBMB scaffold) (peptide)
peptide: ACRNIPTMCPFGPVWCA
modifications: linker 2-9-16 via TBMB
notes: also called Compound 32
Ki [12]: 83.4 nM

B20: 55-03-05-N314 (peptide)
peptide: Ac-[βAla][Sar][Sar][Sar][Sar][Sar][Sar][Sar][Sar][Sar][Sar]H[dD]VP[Dap]PWGPFW[Dap]PVNRPGC
modifications: linker 16-23-30 via TBMB
Ki [18]: 136 nM

B23: Bicycle Compound Number 78 (TATA scaffold), Ac-CPLVNPLCLHPGWTCL(D-His)G-Sar6-(D-K) (peptide)
peptide: CPLVNPLCLHPGWTCLHGXXXXXXK
modifications: N-terminal acetyl; H17 = D-His; X at 19-24 = Sar; K25 = D-Lys; 3 Cys thioether-linked to TATA scaffold
Ki [8]: 115 nM | Ki [9]: 15.6 nM

B24: Bicycle Compound Number 67 (BCY6014) (TATA scaffold), (β-Ala)-Sar10-A(HArg)… (peptide)
peptide: [βAla][Sar][Sar][Sar][Sar][Sar][Sar][Sar][Sar][Sar][Sar]A[hArg]DCPLVNPLCLHPGWTC
modifications: linker 15-22-29 via TATA
Ki [6]: 61.7 nM | Ki [7]: 8.51 nM

The next lines start with the values.

Ki [8]: 29.6 nM | Ki [9]: 2.86 nM
B4: Bicycle Compound Number 89 (TATA scaffold), (β-Ala)-Sar10-ACPLVNPLCLHPGWSCRGQ (peptide)
peptide: XXXXXXXXXXXACPLVNPLCLHPGWSCRGQ
modifications: N-terminal (β-Ala)-Sar10; 3 Cys thioether-linked to TATA scaffold

Kd [10]: 9.07 nM
B5: Bicycle Compound 10 (TATA, Table 11) (peptide)
peptide: {Fl″}-[βAla][Sar][Sar][Sar][Sar][Sar][Sar][Sar][Sar][Sar][Sar]A[hArg]DCPLVNPLCLHPGWTC
modifications: linker 15-22-29 via TATA

Kd [11]: 326 nM
B6: Bicycle Compound Number 2 (TBMB scaffold) (peptide)
peptide: AF488-G[Sar][Sar][Sar][Sar][Sar][Sar][Sar][Sar][Sar][Sar]ACMNDWLCSLGWTC
modifications: linker 13-19-25 via TBMB

Ki [9]: 232 nM | Ki [2]: 151 nM
B8: Bicycle Compound Number 32 (TATA scaffold), ACTSCWAYPDSFCA (peptide)
peptide: ACTSCWAYPDSFCA
modifications: linker 2-5-13 via TATA

Kd [11]: 38 nM
B9: Bicycle Compound Number 14 (TBMB scaffold) (peptide)
peptide: GXXXXXXXXXXACPWGPAWCPVNRPGCA
modifications: N-terminal AF488 (AlexaFluor488); Sar10; 3 Cys thioether-linked to TBMB scaffold

Ki [14]: 0.64 nM | Ki [15]: 0.74 nM
B11: Bicycle Compound 254 (peptide)
peptide: Ac-[Sar][Sar]H[dD]VPCP[1Nal]G[Aib]F[1Nal]CP[Tle]N[hArg]P[dD]C
modifications: linker 7-14-21 via TBMB

Ki [9]: 210 nM | Ki [2]: 87.7 nM | Ki [3]: 107 nM
B12: Bicycle Compound Number 29 (TATA scaffold), ACYVGKECAYMNVCA (peptide)
peptide: ACYVGKECAYMNVCA
modifications: linker 2-8-14 via TATA

Ki [16]: 2.08 nM | Ki [17]: 1 nM
B14: Bicycle Compound 225 (peptide)
peptide: Ac-[Sar][Sar]H[dD]VPCPWGPFWCPVNRPGC
modifications: linker 7-14-21 via TBMB

Ki [8]: 75.3 nM | Ki [9]: 10.6 nM
B19: Bicycle Compound Number 92 (TATA scaffold), Ac-CPLVNPLCLHPGWSC(HArg)GQ-Sar6-(D-K) (peptide)
peptide: CPLVNPLCLHPGWSCXGQXXXXXXK
modifications: N-terminal acetyl; X16 = HArg (homoarginine); X at 19-24 = Sar; K25 = D-Lys; 3 Cys thioether-linked to TATA scaffold

Ki [14]: 0.72 nM | Ki [15]: 0.71 nM
B21: Bicycle Compound 262 (peptide)
peptide: Ac-[Sar][Sar]H[dD]VPCP[1Nal]G[Aib]F[1Nal]CP[Tle]NR[Aib]GC
modifications: linker 7-14-21 via TBMB

Ki [4]: 63.4 nM | Ki [5]: 410 nM
B22: Bicycle Compound Number 64 (TBMB scaffold) (peptide)
peptide: ACTTGSIWCALQFEPCA
modifications: linker 2-9-16 via TBMB (inferred)
notes: also called Compound 64
